Test results reported in US20150064134A1.

Assays:
Experiment in all cases: cell-based or functional assay
[1] = target: T1, ARK5(h) (human) (UniProt O60285)
T1 sequence (looked up): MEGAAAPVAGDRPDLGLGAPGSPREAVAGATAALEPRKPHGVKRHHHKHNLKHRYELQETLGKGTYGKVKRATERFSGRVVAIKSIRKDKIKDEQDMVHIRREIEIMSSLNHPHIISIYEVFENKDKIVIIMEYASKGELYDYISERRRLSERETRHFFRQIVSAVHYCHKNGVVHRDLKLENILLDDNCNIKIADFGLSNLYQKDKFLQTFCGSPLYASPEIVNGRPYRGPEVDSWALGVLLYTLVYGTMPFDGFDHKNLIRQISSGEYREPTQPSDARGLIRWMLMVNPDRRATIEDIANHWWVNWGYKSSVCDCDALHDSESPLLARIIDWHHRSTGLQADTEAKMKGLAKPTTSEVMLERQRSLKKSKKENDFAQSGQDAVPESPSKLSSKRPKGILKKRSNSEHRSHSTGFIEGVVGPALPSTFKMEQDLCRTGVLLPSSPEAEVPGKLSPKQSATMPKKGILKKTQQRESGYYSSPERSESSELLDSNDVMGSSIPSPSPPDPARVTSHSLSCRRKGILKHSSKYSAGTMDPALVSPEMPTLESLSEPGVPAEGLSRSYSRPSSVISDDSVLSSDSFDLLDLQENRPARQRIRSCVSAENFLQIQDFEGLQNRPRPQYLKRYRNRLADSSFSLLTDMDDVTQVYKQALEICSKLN

[2] = target: CHK2(I157T)(h) (human) (UniProt O96017)
[3] = target: CSK(h) (human) (UniProt P41240)
[4] = target: CaMKI(h) (human) (UniProt Q14012)
[5] = target: DMPK(h) (human) (UniProt Q09013)
[6] = target: T2, EphA1(h) (human) (UniProt P21709)
T2 sequence (looked up): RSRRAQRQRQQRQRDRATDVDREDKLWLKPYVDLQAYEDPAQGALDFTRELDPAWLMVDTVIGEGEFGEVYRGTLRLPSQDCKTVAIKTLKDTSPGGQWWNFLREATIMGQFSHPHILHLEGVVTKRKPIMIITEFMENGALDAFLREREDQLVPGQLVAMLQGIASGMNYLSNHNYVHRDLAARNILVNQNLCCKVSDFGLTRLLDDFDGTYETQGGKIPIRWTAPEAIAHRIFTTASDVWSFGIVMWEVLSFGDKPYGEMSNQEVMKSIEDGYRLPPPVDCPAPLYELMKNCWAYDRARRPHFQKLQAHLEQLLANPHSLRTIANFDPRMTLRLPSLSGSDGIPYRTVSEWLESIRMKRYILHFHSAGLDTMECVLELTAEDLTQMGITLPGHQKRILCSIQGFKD

[7] = target: EphA4(h) (human) (UniProt P54764)
[8] = target: Fyn(h) (human) (UniProt P06241)
[9] = target: MST3(h) (human) (UniProt Q9Y6E0)
[10] = target: PKCβII(h) (human) (UniProt P05771)
[11] = target: PKCε(h) (human) (UniProt Q02156)
[12] = target: T3, TSSK2(h) (human) (UniProt Q96PF2)
T3 sequence (looked up): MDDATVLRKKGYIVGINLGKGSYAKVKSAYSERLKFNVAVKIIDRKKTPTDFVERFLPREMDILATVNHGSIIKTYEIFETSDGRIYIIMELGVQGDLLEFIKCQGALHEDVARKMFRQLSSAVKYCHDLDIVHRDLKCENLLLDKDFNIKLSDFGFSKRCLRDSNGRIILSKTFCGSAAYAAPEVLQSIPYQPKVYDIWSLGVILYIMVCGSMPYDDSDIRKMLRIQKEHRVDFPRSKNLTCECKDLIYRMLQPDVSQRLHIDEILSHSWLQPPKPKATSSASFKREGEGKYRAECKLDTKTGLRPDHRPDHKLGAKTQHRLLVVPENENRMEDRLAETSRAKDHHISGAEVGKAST

[13] = target: T4, Tec(h) activated (human) (UniProt P42680)
T4 sequence (looked up): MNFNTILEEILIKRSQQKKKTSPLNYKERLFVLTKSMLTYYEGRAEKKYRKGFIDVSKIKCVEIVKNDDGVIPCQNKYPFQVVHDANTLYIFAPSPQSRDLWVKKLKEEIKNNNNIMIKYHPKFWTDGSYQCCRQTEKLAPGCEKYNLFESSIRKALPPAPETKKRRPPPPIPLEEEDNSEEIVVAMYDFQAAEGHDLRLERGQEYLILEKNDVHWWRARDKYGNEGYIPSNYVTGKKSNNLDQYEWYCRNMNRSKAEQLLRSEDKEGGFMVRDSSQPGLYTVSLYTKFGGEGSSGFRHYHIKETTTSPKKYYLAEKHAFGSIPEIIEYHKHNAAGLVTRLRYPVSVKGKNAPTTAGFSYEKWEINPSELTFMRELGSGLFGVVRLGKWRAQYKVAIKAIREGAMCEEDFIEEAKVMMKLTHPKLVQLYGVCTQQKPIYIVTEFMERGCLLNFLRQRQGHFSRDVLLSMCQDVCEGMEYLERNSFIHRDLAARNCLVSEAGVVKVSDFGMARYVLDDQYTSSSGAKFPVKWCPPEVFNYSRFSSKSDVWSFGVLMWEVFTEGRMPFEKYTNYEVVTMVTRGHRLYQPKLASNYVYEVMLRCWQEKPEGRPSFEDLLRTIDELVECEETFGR

[14] = target: T5, ULK2(h) (human) (UniProt Q8IYT8)
T5 sequence (looked up): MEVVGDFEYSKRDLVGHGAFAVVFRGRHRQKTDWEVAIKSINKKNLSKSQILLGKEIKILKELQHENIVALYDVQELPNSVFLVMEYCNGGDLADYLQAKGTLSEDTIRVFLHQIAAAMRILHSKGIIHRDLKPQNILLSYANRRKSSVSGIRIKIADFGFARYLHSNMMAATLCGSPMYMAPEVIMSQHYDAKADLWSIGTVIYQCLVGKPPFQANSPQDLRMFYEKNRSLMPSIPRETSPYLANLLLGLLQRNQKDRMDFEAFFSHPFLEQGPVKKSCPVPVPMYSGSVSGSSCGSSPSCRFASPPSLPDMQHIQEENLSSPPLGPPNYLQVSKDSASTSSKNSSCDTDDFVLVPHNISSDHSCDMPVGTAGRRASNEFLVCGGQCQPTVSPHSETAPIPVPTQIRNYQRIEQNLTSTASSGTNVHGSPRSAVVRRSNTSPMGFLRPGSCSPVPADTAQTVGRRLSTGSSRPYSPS

Sequence of EphA4(h) (human) (P54764 570-986 limits assumed): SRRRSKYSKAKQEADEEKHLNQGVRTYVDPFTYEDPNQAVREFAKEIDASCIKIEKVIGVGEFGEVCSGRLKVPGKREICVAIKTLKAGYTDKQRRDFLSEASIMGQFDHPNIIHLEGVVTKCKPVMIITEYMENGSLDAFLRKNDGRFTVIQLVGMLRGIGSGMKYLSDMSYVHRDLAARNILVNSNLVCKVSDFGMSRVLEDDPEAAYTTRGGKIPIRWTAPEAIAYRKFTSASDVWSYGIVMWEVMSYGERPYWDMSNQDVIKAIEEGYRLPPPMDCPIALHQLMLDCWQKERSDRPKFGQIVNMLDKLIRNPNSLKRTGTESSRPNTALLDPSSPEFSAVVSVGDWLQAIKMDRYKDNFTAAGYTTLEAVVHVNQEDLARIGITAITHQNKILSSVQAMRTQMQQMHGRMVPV
Sequence of CHK2(I157T)(h) (human) (O96017 5-543 I157T limits assumed): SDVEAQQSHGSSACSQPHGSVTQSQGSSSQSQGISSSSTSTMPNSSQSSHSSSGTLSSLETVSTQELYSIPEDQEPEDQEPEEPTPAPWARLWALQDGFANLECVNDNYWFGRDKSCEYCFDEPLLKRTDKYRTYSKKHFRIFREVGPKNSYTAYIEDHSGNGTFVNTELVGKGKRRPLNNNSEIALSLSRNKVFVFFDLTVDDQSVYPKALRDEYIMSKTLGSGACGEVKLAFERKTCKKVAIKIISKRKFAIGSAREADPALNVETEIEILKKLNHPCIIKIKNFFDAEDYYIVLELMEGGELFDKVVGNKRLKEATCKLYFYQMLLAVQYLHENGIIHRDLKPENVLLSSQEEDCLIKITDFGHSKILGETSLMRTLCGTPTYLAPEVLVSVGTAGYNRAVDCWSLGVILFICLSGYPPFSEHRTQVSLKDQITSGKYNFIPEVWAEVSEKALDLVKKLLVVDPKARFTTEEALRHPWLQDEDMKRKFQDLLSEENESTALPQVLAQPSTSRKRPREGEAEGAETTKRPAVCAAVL

Row | Substance | % activity at 100 µM [1] [%] | % activity at 100 µM [2] [%] | % activity at 100 µM [3] [%] | % activity at 100 µM [4] [%] | % activity at 100 µM [5] [%] | % activity at 100 µM [6] [%] | % activity at 100 µM [7] [%] | % activity at 100 µM [8] [%] | % activity at 100 µM [9] [%] | % activity at 100 µM [10] [%] | % activity at 100 µM [11] [%] | % activity at 100 µM [12] [%] | % activity at 100 µM [13] [%] | % activity at 100 µM [14] [%]
1 | MMI-0300 (peptide) | 78 | 43 | 49 | 1 | 59 | 73 | 88 | 74 | 45 | 82 | 79 | 98 | 56 | 122
2 | MMI-0400 (peptide) | 69 | 41 | 16 | 0 | 54 | 61 | 65 | 54 | 36 | 75 | 59 | 94 | 29 | 131
3 | MMI-0500 (peptide) | 20 | 3 | 2 | -1 | 12 | 40 | 48 | 83 | 4 | 3 | 23 | 92 | 33 | 124
